The data set concerns the molecule itself. As to the kind of experiment: crystal structure; hanging-drop vapor diffusion; 1.6 M Na+/K+ phosphate, 0.2 M LiSO4, 0.1 M CAPS pH 10.5; space group C2; two MtrR dimers in the asymmetric unit.

B1: MtrR (natural protein)
chain: MRKTKTEALKTKEHLMLAALETFYRKGIARTSLNEIAQAAGVTRGALYWHFKNKEDLFDALFQRICDDIENCIAQDAADAEGGSWTVFRHTLLHFFERLQSNDIHYKFHNILFLKCEHTEQNAAVIAIARKHQAIWREKITAVLTEAVENQDLADDLDKETAVIFIKSTLDGLIWRWFSSGESFDLGKTAPRIIGIMMDNLENHPCLRRK
notes: also called native MtrR; WT MtrR
B1: the binding result is listed as “binds”.

(Values after PMC6755732, “Structural, Biochemical, and In Vivo Characterization of MtrR-Mediated Resistance to Innate Antimicrobials by the Human Pathogen Neisseria gonorrhoeae” (Journal of Bacteriology, 2019).)
